The results in this text go back to patent publication US20180321243A1 (UNIVERSITY OF SASKATCHEWAN, published 2018).

Where only a bound is given, the exact number is not on record here.

Assay [1] has as its target T1, recombinant human ADAM10 (Biomatik, #RPU140010) (human, UniProt O14672 214-672, limits assumed).
T1 construct: The source and catalogue number are printed for the phage display selections only; also called purified human ADAM10; Disintegrin and metalloproteinase domain-containing protein 10
T1 sequence (looked up): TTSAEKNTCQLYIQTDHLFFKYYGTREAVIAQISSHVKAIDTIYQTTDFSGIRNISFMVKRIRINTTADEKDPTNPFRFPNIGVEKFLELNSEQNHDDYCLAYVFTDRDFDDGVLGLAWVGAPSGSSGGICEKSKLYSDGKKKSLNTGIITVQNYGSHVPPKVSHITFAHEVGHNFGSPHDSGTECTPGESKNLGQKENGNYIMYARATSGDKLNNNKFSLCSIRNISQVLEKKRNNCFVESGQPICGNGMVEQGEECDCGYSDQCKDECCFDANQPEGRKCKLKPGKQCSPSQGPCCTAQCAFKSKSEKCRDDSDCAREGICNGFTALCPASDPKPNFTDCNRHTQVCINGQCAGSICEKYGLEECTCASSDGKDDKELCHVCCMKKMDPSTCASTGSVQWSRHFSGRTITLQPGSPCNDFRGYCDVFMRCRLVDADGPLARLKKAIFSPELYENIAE
In words: BLI (Octet RED384), unlabeled scFv coupled to AR2G biosensors, ADAM10 at 500 and 166 nM, global fit. Here is the method: BLI sensorgrams for scFv-B2 (A), scFv-B7 (B), and scFv-B9 (C) show real-time binding curves in nanometers of optical thickness versus time (sec). […] A global best fit (solid red line) for each curve was calculated by ForteBio Data Anaylsis 7.1 software and used to determine the kinetic parameters in Table 5.
(§1) Biolayer interferometry was performed with an Octet RED384 instrument (ForteBio). The initial kinetics with unlabeled scFv was performed through coupling to AR2G biosensors per manufacturer instructions (ForteBio). These biosensors were then dipped into ADAM10 (500 nM and 166 nM) to generate the association curves, after which the sensors were moved into buffer alone to generate the corresponding dissociation curves. ForteBio Data Analysis 7.0 software was used for global curve fitting to generate the kinetic data. The kinetic analysis for biotin-conjugated scFvs was performed similarly, except that streptavidin biosensors (ForteBio) were used for immobilization, along with three ADAM10 concentrations (1000 nM, 500 nM, 166 nM). An equal loading (i.e. optical thickness) of the biosensors was performed in both kinetic experiments.
In general terms: BLI is a label-free optical method that tracks binding on a fibre tip over time.

The target of assay [2] is T1, recombinant human ADAM10 (Biomatik, …). The assay can be described thus: phage ELISA, ADAM10 signal over BSA signal; underrepresentation because OD was above the detectable limit. Here is the method:
(§2) A phage-based ELISA was performed as a semi-quantitative approach to initially validate scFv binding to ADAM10. ADAM10 was adsorbed to ELISA plates and purified phage displaying each of the scFv clones was tested for a binding signal compared to a negative control bovine serum albumin (BSA) protein.
(§3) Similar to the phage display screening methodology, ADAM10 was adsorbed to NUNC MaxiSorp Immunoplates and subsequently incubated with ˜10¹² purified phage displaying an scFv clone. An anti-phage-horseradish peroxidase secondary antibody was then used to generate binding signals for each clone in duplicate, which was measured by colour development at an optical density of 450 nm (O.D. 450 nm) using a tetramethylbenzidine substrate (ThermoScientific, #34028).
(In general: ELISA stands for enzyme-linked immunosorbent assay.)

The target in assay [3] is T2, bovine serum albumin (BSA) (bovine, UniProt P02769 25-607).
T2 construct: Negative control / background protein in the phage ELISA
T2 sequence (P02769 25-607 limits assumed): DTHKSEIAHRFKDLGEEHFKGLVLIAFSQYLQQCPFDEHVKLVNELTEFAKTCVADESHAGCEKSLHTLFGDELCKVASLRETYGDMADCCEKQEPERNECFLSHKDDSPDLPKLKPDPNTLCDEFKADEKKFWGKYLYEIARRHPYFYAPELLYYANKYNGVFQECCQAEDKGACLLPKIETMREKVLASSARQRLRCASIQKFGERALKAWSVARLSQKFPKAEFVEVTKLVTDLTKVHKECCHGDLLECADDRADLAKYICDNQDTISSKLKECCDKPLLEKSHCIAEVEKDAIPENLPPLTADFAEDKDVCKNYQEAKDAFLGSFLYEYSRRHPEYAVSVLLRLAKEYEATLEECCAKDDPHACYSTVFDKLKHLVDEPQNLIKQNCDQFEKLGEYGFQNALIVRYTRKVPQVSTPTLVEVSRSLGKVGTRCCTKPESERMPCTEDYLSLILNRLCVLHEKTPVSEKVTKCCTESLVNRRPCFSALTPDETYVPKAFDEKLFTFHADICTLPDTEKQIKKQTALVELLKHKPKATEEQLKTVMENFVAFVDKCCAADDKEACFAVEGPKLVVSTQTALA
The assay can be described thus: phage ELISA, scFv displayed on M13 phage, BSA negative control, duplicate 2. Here is the method: as §2, §3

Assay [4] deals with T2, bovine serum albumin (BSA). In words: phage ELISA, scFv displayed on M13 phage, BSA negative control, duplicate 1. Here is the method: as §2, §3
In assay [5] the target is T1, recombinant human ADAM10 (Biomatik, …). The assay can be described thus: BLI (Octet RED384), biotin-labeled scFv on streptavidin biosensors, ADAM10 at 1000, 500 and 166 nM, global fit. Here is the method: BLI sensorgrams for biotin-scFv-B2 (A), biotin-scFv-B7 (B), and biotin-scFv-B9 (C) show real-time binding curves in nanometers of optical thickness versus time (sec). […] A global best fit (solid red line) for each curve was calculated by ForteBio Data Anaylsis 7.1 software and used to determine the kinetic parameters in Table 6.
as §1

Assay [6] has the same target. In words: phage ELISA, ADAM10 signal over BSA signal. Here is the method: as §2, §3

B1: scFv-B2 (scFv)
scFv: SDIQMTQSPSSLSASVGDRVTITCRASQGISNYLAWYQQKPGKAPKLLIYAASSLQSGVPSRFSGSRSGTDFTLTISSLQPEDFATYYCQQSYYLPLTFGQGTKVEIKGGGSGGGSGGGSGGGSEVQLVESGGGLVQPGGSLRLSCAASGFTFSSYGMHWVRQAPGKGLEWVAVISYDGSNKYYADSVKGRFTISRDNSKNTLYLQMNSLRAEDTAVYYCARWPAHFSHSHSSYYYYGFDVWGQGTLVTVSS
notes: Synthetic human scFv, order VL (IgKV1-16 framework) - (G3S)4 linker - VH (IgHV3-30 framework); Expressed in E. coli BL-21 and purified by protein L chromatography
On to B1, for which, in assay [1], the Kd was found to be 0.0146 µM, the koff was determined as 0.000187 s⁻¹ and the kon was 12800 M⁻¹ s⁻¹. Also, the “Average fold signal over background” value in assay [2] is over 45.7 fold. In assay [3], the “Absorbance at O.D. 450 nm” value came to 0.079 OD 450 nm. The “Absorbance at O.D. 450 nm” value in assay [4] was found to be 0.096 OD 450 nm.

B2: biotin-scFv-B2 (scFv)
scFv: SDIQMTQSPSSLSASVGDRVTITCRASQGISNYLAWYQQKPGKAPKLLIYAASSLQSGVPSRFSGSRSGTDFTLTISSLQPEDFATYYCQQSYYLPLTFGQGTKVEIKGGGSGGGSGGGSGGGSEVQLVESGGGLVQPGGSLRLSCAASGFTFSSYGMHWVRQAPGKGLEWVAVISYDGSNKYYADSVKGRFTISRDNSKNTLYLQMNSLRAEDTAVYYCARWPAHFSHSHSSYYYYGFDVWGQGTLVTVSS
modifications: covalently labeled with biotin by N-hydroxysuccinamide amine coupling (EZ-link NHS biotin); labeled residues not stated
notes: held on streptavidin biosensors in the BLI experiments; also called biotin-labeled scFv-B2
On to B2, for which, in assay [5], the Kd was 0.022 µM, the koff came out at 0.00103 s⁻¹ and the on-rate constant (kon) is 46800 M⁻¹ s⁻¹.

B3: scFv-B7 (scFv)
scFv: SDIQMTQSPSSLSASVGDRVTITCRASQGISNYLAWYQQKPGKAPKLLIYAASSLQSGVPSRFSGSRSGTDFTLTISSLQPEDFATYYCQQVSSWPLTFGQGTKVEIKGGGSGGGSGGGSGGGSEVQLVESGGGLVQPGGSLRLSCAASGFTFSSYGMHWVRQAPGKGLEWVAVISYDGSNKYYADSVKGRFTISRDNSKNTLYLQMNSLRAEDTAVYYCARYPPHGFDYWGQGTLVTVSS
notes: as for B1
For the molecule B3, the “Average fold signal over background” value in assay [6] worked out at 37 fold. Also, in assay [1], the Kd worked out at 0.00752 µM, the koff was 9.3e-05 s⁻¹ and the on-rate (kon) is 12400 M⁻¹ s⁻¹. For the same molecule, in assay [3], the “Absorbance at O.D. 450 nm” value was 0.086 OD 450 nm. Also, the “Absorbance at O.D. 450 nm” value in assay [4] was 0.084 OD 450 nm.

B4: biotin-scFv-B7 (scFv)
scFv: SDIQMTQSPSSLSASVGDRVTITCRASQGISNYLAWYQQKPGKAPKLLIYAASSLQSGVPSRFSGSRSGTDFTLTISSLQPEDFATYYCQQVSSWPLTFGQGTKVEIKGGGSGGGSGGGSGGGSEVQLVESGGGLVQPGGSLRLSCAASGFTFSSYGMHWVRQAPGKGLEWVAVISYDGSNKYYADSVKGRFTISRDNSKNTLYLQMNSLRAEDTAVYYCARYPPHGFDYWGQGTLVTVSS
modifications: covalently labeled with biotin by N-hydroxysuccinamide amine coupling (EZ-link NHS biotin); labeled residues not stated
notes: held on streptavidin biosensors in the BLI experiments; also called biotin-labeled scFv-B7
With B4, in assay [5], the Kd amounted to 0.021 µM, the koff came out at 0.00109 s⁻¹ and the on-rate constant (kon) turned out to be 51900 M⁻¹ s⁻¹.

B5: scFv-B9 (scFv)
scFv: SDIQMTQSPSSLSASVGDRVTITCRASQGISNYLAWYQQKPGKAPKLLIYAASSLQSGVPSRFSGSRSGTDFTLTISSLQPEDFATYYCQQLYHPPLTFGQGTKVEIKGGGSGGGSGGGSGGGSEVQLVESGGGLVQPGGSLRLSCAASGFTFSSYGMHWVRQAPGKGLEWVAVISYDGSNKYYADSVKGRFTISRDNSKNTLYLQMNSLRAEDTAVYYCARYSPYHYSHSVSYYYYGFDVWGQGTLVTVSS
notes: as for B1
B5: the “Average fold signal over background” value in assay [6] stood at 42.1 fold. In assay [1], the Kd worked out at 0.00932 µM, the koff stood at 0.000115 s⁻¹ and the kon came out at 12400 M⁻¹ s⁻¹. In assay [3], the “Absorbance at O.D. 450 nm” value was 0.082 OD 450 nm. Besides, the “Absorbance at O.D. 450 nm” value in assay [4] turned out to be 0.075 OD 450 nm.

B6: biotin-scFv-B9 (scFv)
scFv: SDIQMTQSPSSLSASVGDRVTITCRASQGISNYLAWYQQKPGKAPKLLIYAASSLQSGVPSRFSGSRSGTDFTLTISSLQPEDFATYYCQQLYHPPLTFGQGTKVEIKGGGSGGGSGGGSGGGSEVQLVESGGGLVQPGGSLRLSCAASGFTFSSYGMHWVRQAPGKGLEWVAVISYDGSNKYYADSVKGRFTISRDNSKNTLYLQMNSLRAEDTAVYYCARYSPYHYSHSVSYYYYGFDVWGQGTLVTVSS
modifications: covalently labeled with biotin by N-hydroxysuccinamide amine coupling (EZ-link NHS biotin); labeled residues not stated
notes: held on streptavidin biosensors in the BLI experiments; also called biotin-labeled scFv-B9
As to B6, in assay [5], the Kd was found to be 0.0231 µM, the koff was 0.00117 s⁻¹ and the kon is 50800 M⁻¹ s⁻¹.

In general, Kd refers to the concentration at which binding is half-saturated. The koff is a measure of how fast the partners let go of each other. A word on the kon: it is a measure of how fast the partners come together.
